Biological target: T1, Human Integrin αVβ3 (human, UniProt P06756 31-992; P05106 27-718)
T1 construct: Commercial heterodimer from ACROBiosystems; No catalogue number or construct limits are printed; also called Integrin aVß3; integrin (ITG)
Test: ELISA, CtsZ coated 200 ng/well, integrin αVβ3 titrated from 200 nM in 1/3 steps, detected with biotinylated anti-integrin alpha V antibody and streptavidin-HRP
Method: After coating 1×PBS (pH 7.4) containing 200 ng of CtsZ in each well of a 96-well high-binding plate at 4° C. for 16 hours, followed by washing twice with a washing buffer (20 mM Tris-HCl, 150 mM NaCl, 1 mM MnCl₂, 0.05% Tween-20), blocking was performed at room temperature for 2 hours using a blocking buffer (washing buffer containing 3% BSA). After washing twice with a washing buffer, binding was performed at room temperature for 2 hours using a dilution buffer (washing buffer containing 0.5% BSA) containing 200 nM, ⅓ eq. integrin αVβ3. After washing 4 times with a washing buffer, biotinylated anti-human integrin alpha V antibody (diluted to 1:100 with dilution buffer) was treated at room temperature for 1 hour. After washing 4 times with a washing buffer, HRP-conjugated streptavidin was treated at room temperature for 1 hour. After washing 4 times with a washing buffer, followed by addition of ultra TBM matrix, reaction was performed for 2 minutes and the reaction was stopped by adding 2 M H₂SO₄. KD values were calculated from the absorbance at 450 nm using the Prism7 software.
Because CtsZ has an RGD motif binding to integrin, particularly integrin αVβ3, in the pro-region, it was investigated whether the purified CtsZ was in active form by measuring binding affinity for integrin αVβ3 purchased from ACROBiosystems.

T1 sequence (P06756 31-992 limits assumed, chain 1 of 2): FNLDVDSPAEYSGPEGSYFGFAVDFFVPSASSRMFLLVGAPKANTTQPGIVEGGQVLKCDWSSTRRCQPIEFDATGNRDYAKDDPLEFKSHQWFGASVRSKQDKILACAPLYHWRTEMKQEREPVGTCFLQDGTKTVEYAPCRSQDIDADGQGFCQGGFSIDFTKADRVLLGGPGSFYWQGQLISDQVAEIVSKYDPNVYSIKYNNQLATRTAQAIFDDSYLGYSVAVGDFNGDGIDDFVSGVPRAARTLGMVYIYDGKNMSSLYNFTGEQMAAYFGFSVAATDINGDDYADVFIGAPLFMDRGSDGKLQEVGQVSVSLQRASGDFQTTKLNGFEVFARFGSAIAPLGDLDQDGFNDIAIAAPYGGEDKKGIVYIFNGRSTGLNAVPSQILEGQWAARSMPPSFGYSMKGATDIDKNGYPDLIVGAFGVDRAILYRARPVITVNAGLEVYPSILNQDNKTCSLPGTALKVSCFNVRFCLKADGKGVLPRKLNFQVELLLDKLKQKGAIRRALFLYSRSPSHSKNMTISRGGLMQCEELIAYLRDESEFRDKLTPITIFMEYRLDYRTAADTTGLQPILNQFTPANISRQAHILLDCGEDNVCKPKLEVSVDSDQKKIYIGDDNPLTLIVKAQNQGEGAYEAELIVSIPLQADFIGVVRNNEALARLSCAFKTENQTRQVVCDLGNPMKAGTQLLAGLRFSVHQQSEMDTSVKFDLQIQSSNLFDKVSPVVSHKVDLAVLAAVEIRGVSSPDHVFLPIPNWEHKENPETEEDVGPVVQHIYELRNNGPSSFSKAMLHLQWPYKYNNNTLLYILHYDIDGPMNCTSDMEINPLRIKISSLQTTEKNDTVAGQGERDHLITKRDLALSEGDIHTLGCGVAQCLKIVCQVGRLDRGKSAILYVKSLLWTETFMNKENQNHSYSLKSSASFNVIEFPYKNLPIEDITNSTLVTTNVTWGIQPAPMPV
T1 sequence (P05106 27-718 limits assumed, chain 2 of 2): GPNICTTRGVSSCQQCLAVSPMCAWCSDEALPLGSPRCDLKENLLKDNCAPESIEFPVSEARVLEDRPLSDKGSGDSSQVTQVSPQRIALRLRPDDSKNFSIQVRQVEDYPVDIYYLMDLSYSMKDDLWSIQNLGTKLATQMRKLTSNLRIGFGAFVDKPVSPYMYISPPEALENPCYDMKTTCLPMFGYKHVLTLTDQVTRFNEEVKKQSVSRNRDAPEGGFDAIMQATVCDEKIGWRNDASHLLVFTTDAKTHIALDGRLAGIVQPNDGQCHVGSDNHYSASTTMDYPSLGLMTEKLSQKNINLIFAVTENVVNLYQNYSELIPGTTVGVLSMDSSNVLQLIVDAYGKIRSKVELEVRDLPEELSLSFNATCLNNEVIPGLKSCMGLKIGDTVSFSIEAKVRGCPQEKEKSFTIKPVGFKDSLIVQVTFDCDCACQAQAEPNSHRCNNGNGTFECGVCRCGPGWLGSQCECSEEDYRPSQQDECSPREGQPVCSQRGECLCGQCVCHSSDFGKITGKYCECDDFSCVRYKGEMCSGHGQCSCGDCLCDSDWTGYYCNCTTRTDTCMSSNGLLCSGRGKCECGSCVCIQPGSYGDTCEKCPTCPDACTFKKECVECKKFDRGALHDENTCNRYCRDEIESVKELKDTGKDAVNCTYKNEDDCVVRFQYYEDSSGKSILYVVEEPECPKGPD

B1: recombinant human cathepsin Z with C-terminal 6x-His tag (enzyme)
chain: not shown
notes: Secreted from Expi-293F cells and purified on Ni-NTA; Glycosylated, about 37 kDa on SDS-PAGE against 33 kDa predicted; also called CtsZ; purified CtsZ
Kd: ~137 nM
